Substitutions are numbered along the chain they refer to. Names may count otherwise. One block for each binder: values may come before it.
Legend:
Human IL-2Rβ (Table 7B) = target: T1, Human IL-2Rβ (Table 7B) (human, UniProt P14784 27-239, limits assumed); experiment: SPR (Biacore T200)
T1 sequence (looked up): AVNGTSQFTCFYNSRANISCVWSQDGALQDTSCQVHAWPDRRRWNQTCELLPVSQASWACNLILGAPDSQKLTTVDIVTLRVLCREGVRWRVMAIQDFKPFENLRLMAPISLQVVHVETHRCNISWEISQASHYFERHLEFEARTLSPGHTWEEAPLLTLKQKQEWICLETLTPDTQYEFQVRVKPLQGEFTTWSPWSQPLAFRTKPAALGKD

[1] = target: T2, mouse IL-2Rαβγc (on CTLL2-STAT5 reporter cells) (mouse, UniProt P01590 22-268; P16297 27-539; P34902 23-369); experiment: cell-based or functional assay
T2 sequence (looked up) 1: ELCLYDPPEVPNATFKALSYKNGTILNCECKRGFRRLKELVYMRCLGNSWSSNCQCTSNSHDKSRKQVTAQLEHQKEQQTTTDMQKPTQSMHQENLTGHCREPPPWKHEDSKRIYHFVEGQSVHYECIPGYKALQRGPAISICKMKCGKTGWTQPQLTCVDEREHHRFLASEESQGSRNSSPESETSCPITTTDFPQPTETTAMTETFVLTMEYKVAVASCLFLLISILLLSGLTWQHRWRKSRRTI
T2 sequence (looked up) 2: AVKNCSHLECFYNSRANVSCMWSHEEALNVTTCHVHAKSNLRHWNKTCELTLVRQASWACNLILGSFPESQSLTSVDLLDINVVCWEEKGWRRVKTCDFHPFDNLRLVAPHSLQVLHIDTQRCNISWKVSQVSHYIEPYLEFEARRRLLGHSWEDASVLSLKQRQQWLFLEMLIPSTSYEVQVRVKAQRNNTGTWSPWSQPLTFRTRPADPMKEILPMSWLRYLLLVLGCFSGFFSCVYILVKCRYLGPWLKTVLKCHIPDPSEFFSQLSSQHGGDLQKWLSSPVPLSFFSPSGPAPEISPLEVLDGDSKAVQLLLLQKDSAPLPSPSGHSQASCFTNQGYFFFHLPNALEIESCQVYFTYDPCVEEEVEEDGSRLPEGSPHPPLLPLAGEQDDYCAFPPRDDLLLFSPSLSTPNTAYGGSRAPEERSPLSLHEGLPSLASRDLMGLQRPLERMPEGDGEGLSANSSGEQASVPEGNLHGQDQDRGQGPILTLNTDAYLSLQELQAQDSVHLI
T2 sequence (looked up) 3: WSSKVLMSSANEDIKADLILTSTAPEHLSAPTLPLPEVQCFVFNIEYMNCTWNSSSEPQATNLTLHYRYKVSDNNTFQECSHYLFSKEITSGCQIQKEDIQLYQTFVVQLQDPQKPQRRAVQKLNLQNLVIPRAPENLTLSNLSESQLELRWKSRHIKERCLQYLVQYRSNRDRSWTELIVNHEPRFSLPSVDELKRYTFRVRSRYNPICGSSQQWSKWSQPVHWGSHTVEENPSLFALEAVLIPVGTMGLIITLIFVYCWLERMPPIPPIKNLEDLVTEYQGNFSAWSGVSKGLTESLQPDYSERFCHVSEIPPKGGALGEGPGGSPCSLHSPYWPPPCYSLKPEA

[2] = target: T3, human IL-2Rαβγc (on Kit225-STAT5 reporter cells, NK-92 cells, primary Treg cells) (human, UniProt P01589 22-272; P14784 27-551; P31785 23-369); experiment: cell-based or functional assay
T3 sequence (looked up) 1: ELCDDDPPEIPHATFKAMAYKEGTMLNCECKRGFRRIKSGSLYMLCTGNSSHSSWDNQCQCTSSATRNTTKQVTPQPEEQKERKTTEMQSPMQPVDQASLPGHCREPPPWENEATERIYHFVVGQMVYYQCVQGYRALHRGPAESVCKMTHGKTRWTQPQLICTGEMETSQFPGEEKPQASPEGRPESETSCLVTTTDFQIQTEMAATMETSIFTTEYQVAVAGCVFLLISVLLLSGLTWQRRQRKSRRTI
T3 sequence (looked up) 2: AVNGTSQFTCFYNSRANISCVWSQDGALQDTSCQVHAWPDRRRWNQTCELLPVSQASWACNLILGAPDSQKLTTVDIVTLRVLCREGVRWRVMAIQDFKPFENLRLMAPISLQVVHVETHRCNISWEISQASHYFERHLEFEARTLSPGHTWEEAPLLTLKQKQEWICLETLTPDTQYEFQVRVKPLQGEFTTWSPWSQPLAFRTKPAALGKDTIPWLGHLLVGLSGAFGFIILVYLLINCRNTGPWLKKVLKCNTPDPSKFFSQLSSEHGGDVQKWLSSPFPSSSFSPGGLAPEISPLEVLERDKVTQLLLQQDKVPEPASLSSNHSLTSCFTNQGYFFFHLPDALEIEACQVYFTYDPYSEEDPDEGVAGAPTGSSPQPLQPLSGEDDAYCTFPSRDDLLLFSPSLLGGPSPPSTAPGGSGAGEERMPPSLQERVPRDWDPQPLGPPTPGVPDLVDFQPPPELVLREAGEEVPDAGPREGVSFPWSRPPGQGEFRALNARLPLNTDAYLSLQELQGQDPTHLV
T3 sequence (looked up) 3: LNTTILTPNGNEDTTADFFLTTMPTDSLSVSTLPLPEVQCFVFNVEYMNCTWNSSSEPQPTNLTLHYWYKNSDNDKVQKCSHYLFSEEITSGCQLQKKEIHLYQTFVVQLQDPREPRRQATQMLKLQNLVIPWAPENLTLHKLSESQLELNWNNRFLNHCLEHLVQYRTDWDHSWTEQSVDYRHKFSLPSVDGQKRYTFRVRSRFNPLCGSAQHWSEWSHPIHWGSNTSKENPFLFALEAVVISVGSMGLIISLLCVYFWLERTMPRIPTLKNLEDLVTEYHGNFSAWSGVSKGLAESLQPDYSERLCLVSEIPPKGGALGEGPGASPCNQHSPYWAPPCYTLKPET

[3] = target: T4, human IL-2Rβγc (on DERL-7 cells, U2OS IL2RB/IL2RG cells, CD25 knockout Kit225-STAT5 cells, primary CD8+ CTLs) (human, UniProt P14784 27-551; P31785 23-369); experiment: cell-based or functional assay
T4 sequence (looked up) 1: T3 sequence (looked up) 2
T4 sequence (looked up) 2: T3 sequence (looked up) 3

[4] = target: T4, human IL-2Rβγc (on DERL-7 cells, U2OS …); experiment: cell-based or functional assay; remark: listed apart in the source

Kd (Human IL-2Rβ (Table 7B)): 990 nM
koff (Human IL-2Rβ (Table 7B)): 0.36 s⁻¹
kon (Human IL-2Rβ (Table 7B)): 360000 M⁻¹ s⁻¹
STAT5-CTLL2 EC50 [1]: 2.2 nM
STAT5-CTLL2 EC50 Fold Change [1]: 244 fold
NK-92 EC50 Fold Change [2]: 4.61 fold
NK-92 cell assay EC50 [2]: 0.032 nM
U2OS B/BG EC50 Fold Change [3]: 3.09 fold
U2OS B/BG bridging cell assay EC50 [3]: 0.492 nM
DERL7 EC50 Fold Change [4]: 1.55 fold
DERL7 cell assay EC50 [4]: 0.028 nM
B3: Ald-6HIS_T40D/E60T (ligand)
chain: PTSSSTKKTQLQLEHLLLDLQMILNGINNYKNPKLTRMLDFKFYMPKKATELKHLQCLETELKPLEEVLNLAQSKNFHLRPRDLISNINVIVLELKGSETTFMCEYADETATIVEFLNRWITFSQSIISTLTGGSHHHHHH

Kd (Human IL-2Rβ (Table 7B)): 1100 nM
koff (Human IL-2Rβ (Table 7B)): 0.47 s⁻¹
kon (Human IL-2Rβ (Table 7B)): 440000 M⁻¹ s⁻¹
STAT5-CTLL2 EC50 [1]: 103 nM
STAT5-CTLL2 EC50 Fold Change [1]: 11400 fold
NK-92 EC50 Fold Change [2]: 11.4 fold
NK-92 cell assay EC50 [2]: 0.079 nM
U2OS B/BG EC50 Fold Change [3]: 3.15 fold
U2OS B/BG bridging cell assay EC50 [3]: 0.502 nM
DERL7 EC50 Fold Change [4]: 2.01 fold
DERL7 cell assay EC50 [4]: 0.036 nM
B4: Ald-6HIS_F41K/E60T (ligand)
chain: B3 chain with D40T, F41K

Kd (Human IL-2Rβ (Table 7B)): 860 nM
koff (Human IL-2Rβ (Table 7B)): 0.013 s⁻¹
STAT5-CTLL2 EC50 [1]: 95.2 nM
STAT5-CTLL2 EC50 Fold Change [1]: 10500 fold
NK-92 EC50 Fold Change [2]: 9.03 fold
NK-92 cell assay EC50 [2]: 0.063 nM
U2OS B/BG EC50 Fold Change [3]: 2.04 fold
U2OS B/BG bridging cell assay EC50 [3]: 0.325 nM
DERL7 EC50 Fold Change [4]: 1.46 fold
DERL7 cell assay EC50 [4]: 0.026 nM
B5: Ald-6HIS_R37A/F41K/E60T (ligand)
chain: B3 chain with R37A, D40T, F41K

The remaining lines, values behind:

B1: Ald-6HIS_R37A/T40D (ligand)
chain: B3 chain with R37A, T60E
Kd (Human IL-2Rβ (Table 7B)): 730 nM
koff (Human IL-2Rβ (Table 7B)): 0.25 s⁻¹
kon (Human IL-2Rβ (Table 7B)): 340000 M⁻¹ s⁻¹
STAT5-CTLL2 EC50 [1]: 0.101 nM
STAT5-CTLL2 EC50 Fold Change [1]: 11.2 fold
NK-92 EC50 Fold Change [2]: 2.06 fold
NK-92 cell assay EC50 [2]: 0.014 nM
U2OS B/BG EC50 Fold Change [3]: 2.83 fold
U2OS B/BG bridging cell assay EC50 [3]: 0.451 nM
DERL7 EC50 Fold Change [4]: 1.31 fold
DERL7 cell assay EC50 [4]: 0.023 nM

B2: Ald-6HIS_T40D/F41K/E60T (ligand)
chain: B3 chain with F41K
Kd (Human IL-2Rβ (Table 7B)): 1000 nM
koff (Human IL-2Rβ (Table 7B)): 0.36 s⁻¹
kon (Human IL-2Rβ (Table 7B)): 350000 M⁻¹ s⁻¹
STAT5-CTLL2 EC50 [1]: 98.5 nM
STAT5-CTLL2 EC50 Fold Change [1]: 10900 fold
NK-92 EC50 Fold Change [2]: 9.09 fold
NK-92 cell assay EC50 [2]: 0.063 nM
U2OS B/BG EC50 Fold Change [3]: 3.15 fold
U2OS B/BG bridging cell assay EC50 [3]: 0.503 nM
DERL7 EC50 Fold Change [4]: 1.4 fold
DERL7 cell assay EC50 [4]: 0.025 nM

B6: Ald-6HIS_R37A/T40D/F41K (ligand)
chain: B3 chain with R37A, F41K, T60E
Kd (Human IL-2Rβ (Table 7B)): 590 nM
koff (Human IL-2Rβ (Table 7B)): 0.24 s⁻¹
kon (Human IL-2Rβ (Table 7B)): 410000 M⁻¹ s⁻¹
STAT5-CTLL2 EC50 [1]: 12.7 nM
STAT5-CTLL2 EC50 Fold Change [1]: 1400 fold
NK-92 EC50 Fold Change [2]: 3.73 fold
NK-92 cell assay EC50 [2]: 0.026 nM
U2OS B/BG EC50 Fold Change [3]: 1.16 fold
U2OS B/BG bridging cell assay EC50 [3]: 0.185 nM
DERL7 EC50 Fold Change [4]: 0.71 fold
DERL7 cell assay EC50 [4]: 0.013 nM

Source: US20210340207A1 (Merck Sharp & Dohme, published 2021)
